This is an account of results in the nanobody polyreactivity screen of Harvey et al. (2022).

This series is described as follows: yeast display, Sf9 membrane polyspecificity reagent, FACS + sequencing; frameworks hold sequencing errors. Summed up: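 A nanobody's polyreactivity label depends on the gate it was sorted from. Yeast display cells were stained with 10% biotinylated, detergent-solubilized Sf9 membrane reagent for 1 hour at 4 °C, enriched on streptavidin microbeads and sorted by FACS. The low and high (top ~1%) gates were set on anti-HA fluorescence for expression and streptavidin fluorescence for reagent binding.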
With “QEQLQESGGGLVQAGDSPRLSCAESGYITARTGMGSYRQAPGKEREFVAGIASGTRTHYADSVKGRFTISRDNAKNAVYLQMTSLKPEDTAVYYCAATFGFFYYQYDYWGQGTQVTVSS”, the “polyreactivity (PSR sort gate)” value is “low polyreactivity”. Regarding “QEQLQESGGGLVQAGGSLRLSCAASGNISTHQLYMGSYRQAPGKEREFVAAINFGASTYYADSVKGRNTISRDNAKYTVYLQMNSLKPEDTAVYYCNADWYYYYEVDDYWGQGTQVTVSS”, the “polyreactivity (PSR sort gate)” value is “low polyreactivity”. In the case of “QEQLQESGGGLVQAGGSLRLSCAASGSIYDDTYMARYRQAPGKERELVATIDSGSTTNYADSVKGRITISRDNAKNTVYLQMNSLKPEDSAVYYCAAADSHIDYFDYWGQGTQVTVSS”, the “polyreactivity (PSR sort gate)” value is on record as “low polyreactivity”. With “QEQLQESGGGLVQAGGSLRLSCAASGYISSWYPMGWYRQAPGKEREFVATIAPGATTYYADSVKGRFTISRDYAKNTVYLQMNSLTPEDTAVYYCAAGPENNDFYSYWGQGTQVTVSS”, the “polyreactivity (PSR sort gate)” value is given as “low polyreactivity”. On to “QEQLQESGGGLVQAGGSQSLSCAASGIIFDWFFMGWYRQAPGREREFVAAITYGATTNYADSVKGRFTISRDNGKITVYLQMNSLKPEDCAVYYCAAASPLYWVDDFESGWRYYYWGQGTQVTVSS”, for which the “polyreactivity (PSR sort gate)” value is reported as “low polyreactivity”. In the case of “QEQLQESGSGLVQAGGSLRLSCAASGNIFQDWVMAWYRQAPGKERELVAAISPGAITYYADSVKGRFTISRDNAKNTVYLQTNSLKPEDTAVYYCAAYYIVEYLHGYWGQGTRVTVSS”, the “polyreactivity (PSR sort gate)” value was “low polyreactivity”. For “QEQLQESGSGLVQAGGSLRLSCAASGNIFQDWVMGWYRKAPGQERELVAAISPGAITYYADSVKGRFTISRDNAKNSVYLQTKSLKPEDTAVYYCGAYYIVEYLHGYWGQGTRVTVSS” the value was “low polyreactivity”. For the sequence “QEQLQESRGGLVQAGGSLRMTCAASGYNYLAHTIGWYRQAPGKELEFVASIALGSSTYYTDSVKGSFTISRDNAKTTVYLQKNSQKPEDTAVYYCAARVGASYAHDYWGQGTQVTVSS”, the “polyreactivity (PSR sort gate)” value is listed as “low polyreactivity”. Consider “QEQLVESGGGLVQAGGSLRLSCAASGFIFAPYAMGWYSQAPGKDRDLVAAISSSGGSTYYADSVKGRFTISRDNAKNTVYLQMNSLKPEDTAVFYCAARGNFGANPGRKHGFDYWGQGTQVTVSS”, for which the “polyreactivity (PSR sort gate)” value is on record as “low polyreactivity”. For “QEQLVQSAGGLVQAGGSLPLSCAASGSIIISNAMGWYRQAPGKERELVAAISRSGARTYYADSVKGRFTISRDNAKNTVYLQMNSLKPEDTAVYSCAVDGYSPYKYDYWGQGTLVTVSS”, the “polyreactivity (PSR sort gate)” value is reported as “high polyreactivity”.

Turning to “QFHLVESGGGLVQAGGSLRLSCAASGSTFWFNVMGWYRQAPGKEREFVAAISSIGGSTYYADSVKGRFTISRDNAKNTVYLQMNSMKPEDTAVYYCAVEVVRVYRYDYWGQGTQVTVTS”, the “polyreactivity (PSR sort gate)” value is given as “low polyreactivity”. The result for “QFHLVESGRDFVQAAGSLLLSCAASASIFRYYTMGWYRQAPGKETELVATITDRGTSTYDADSVKGRFTLSRESV” reads “high polyreactivity”; that for “QFQHVESGGGLDQARGRLRLSCAASGYTFAKYTMGSYRQAPGKERELVAAISRGGSTTYADSVKGRFTISRDNAKNTVYLQMNSLKPEDTAVYDCAASGTKREDGYSLGYPRAGDYWGQGTQVTVSS”, “low polyreactivity”; that for “QFQHVESGGGLVQARGSRRLSCAASGRTLYRNAMGWYRPARGKERELVAAITSGGHTKYADSVKGRFTISRDNAKNTVYLQMNSLKPVDTAVYYCNARYIRYSVGFLYTRYDYCGQGTQVTVSS”, “high polyreactivity”. Take “QFQIVESGGGLVQAGGSLRLSCAASGSTFRTNAMGWYRQAPGKERELVARIRYSVGSTYYADSVKGRFTISRDNAKNTVYLQMNSLKPEDTAVYYCAAENQRVGTFREHDSWGQGTQVTVSS”: the “polyreactivity (PSR sort gate)” value is recorded as “low polyreactivity”. With “QFQLEESGGGLVQAGGSLRLSCDASGIIINYYAMGWYRQAPGKERELVAAIRISDTTYYADSVKGRFTISRDNAKNTVYLQMNSLKPEDTAVYYCNTLYYYYYGEVYVRDYDYWGQGTHVTVSS”, the “polyreactivity (PSR sort gate)” value is “low polyreactivity”. For “QFQLLESGGGLVHAGGSLLLSCAASGSTFVRYAMGWYRQAPAKERELVASISSSGSTYYADSVKGRFTISRDNAKNSDYLQMNSLKPEDTSVYYCAIQYGGRYGYWGQGTQVTVSS” the value was “low polyreactivity”; for “QFQLLESGGGLVQAGGSLRLSCAASGSIFRSNTMGWSRQAPGKAREFVAAISRRGSRTYADSVKGRFTISRDNAKNTVYLQMNSRKPEDTAVYYCAAERGYQAHPGQGDYWGQGTQVTVSA”, “high polyreactivity”. The result for “QFQLLESGGGVVHAAGSLRLSCAASGLIFPIYAMGWYRQAPGKERELVAVISSSGGSTNYADSVKGRFTISRDNAKNTVYLQMNSLKPEDTAVYYCAARYLQGRYDYWGQGTQVTVSS” reads “high polyreactivity”; that for “QFQLVDSGGGLVQAGGSLRLSCAASGLIFFYYAMGWYRQAPGKERELVAAIRTNYADSVKGRFTISRDNAKNTVYLQMNSLKPEDTAVYYCAAESSQTPTSAFDYWGQGTQVTVSS”, “low polyreactivity”. On to “QFQLVDSGGGLVQAGGSLRLSCAPSGRIFQIYAMGWYRQAPGKERELVAAISGSTSYADSVKGRFTISRDNAKNTVYLQMISLKPEDTAVYYCAARALLPYGEYWGQGSQVTVSS”, for which the “polyreactivity (PSR sort gate)” value was “low polyreactivity”. As to “QFQLVESCRGLVQAGGSLRLSCAASGFTFRANGMGWYRQAPGKERELVATITSGGTTNYADSVKGRFTISRDNAKNTVYLQMNSLKREDTAVYYCAKRFGPAYFRLYDYWGQGTQVTVSS”, the “polyreactivity (PSR sort gate)” value was “low polyreactivity”. Regarding “QFQLVESGGCLVQAGGSLRLSCAASGFTFGYNAMGWYRQAPGKERELVAVITQSGGRTYYADSVKGRFTISRDNAKYTVYVQMNSLKPEDTAVYYCADRYRLPPYYYWGQGSQVTVSS”, the “polyreactivity (PSR sort gate)” value is reported as “high polyreactivity”.

Consider “QFQLVESGGGFVQAGGSLRLSCAASGRIFKTYMGWYRQAPGKESELVAGITRGGGSTYYADSVKGRFTISRDNAKNTVYLQMNSLKPEDTAVYYCAADAWSSYLDRPFDYWGQGTQVTVSS”, for which the “polyreactivity (PSR sort gate)” value is reported as “high polyreactivity”. For the sequence “QFQLVESGGGFVQAGGSLRLSCAASGSIFLYNDMGWYRQAPGKERELVPAITSDGSTNYADSVKGRFTISRDNAKNTFYLQMNSLKPEDTAVYYCAADALWFYLNWYYGGTAYGYWGQGTQVTVSS”, the “polyreactivity (PSR sort gate)” value is on record as “low polyreactivity”. Consider “QFQLVESGGGIVQAGGSHRVICAASASTFARNAMGWYRQATGKESEFVATISSSGGRTYYADSVKGRFTISRDNAKNTVYLQMNSLKPEDTAVYYCAADYHIVWYEEYSWGQGTQVTVSS”, for which the “polyreactivity (PSR sort gate)” value is “high polyreactivity”. Take “QFQLVESGGGLDQAGGSLRLSCAASGSTSRKYTMGWYRQAPGTDRELVATISWSGGSTNYADSVKGRFTISRDNAKNTVYLQMNSLKPEDTAVYYCNAYVSPRYRGSRYYYWGQGTQVTVSS”: the “polyreactivity (PSR sort gate)” value is “high polyreactivity”. The result for “QFQLVESGGGLFQAGGSLRLSCAAYGRISLRNGMGWYRQAPGKERELVAAISRGGSTYYADSVKGRFTISRDNAKNTVYLQMNSLKPEDTAVYYCNADIRPIYGDDDYWGQSTQVTVSS” reads “low polyreactivity”; that for “QFQLVESGGGLVQAGGSHRLSCAASGFIFYYYAMGSYRQAPGKERELVAVLTESGSSTYYADSVKGRFTFSRDNAKNTVYLQMNSLKPVDTAVYYCNADFWPYTGKYDYWGQGTQVTVSS”, “low polyreactivity”; that for “QFQLVESGGGLVQAGGSLLLSCAASGTFGVYAMGWYRQAPGKERELVAVITDSGGTNYADSVKGRFTISRDNAKNTVFLQMNSLKPEDTAVYYCNTDAGDYYGENYWGQGTQVTVSS”, “low polyreactivity”. As for “QFQLVESGGGLVQAGGSLRISCAASGITLRRNAMGWYRQAPGKEREWVAAISWSGGRTYYADSVKGRFTISRDNAKNTVYLQMNSLKPEDTAVYYCAARGYPLTAFDYWGQGTQVTVSS”, the “polyreactivity (PSR sort gate)” value is recorded as “high polyreactivity”. As to “QFQLVESGGGLVQAGGSLRISCAASGRIFYRYAMGWYRPAPGKERELVASIRFSVGSTYYADSVKGRFTISRDNAKNTVYLQMNSLKPEDTAVYYCAADYTKYYRRYYYWGQGTQVTVSS”, the “polyreactivity (PSR sort gate)” value is reported as “high polyreactivity”. For the sequence “QFQLVESGGGLVQAGGSLRLSCAASAGYALGGYRQAPGKERELVAVINYSGGSTYYADSVKGRFTISRDNAKNTVYLQMNSLKPEDTAVYYCAAVYRRRYYWGQGTQVTVSS”, the “polyreactivity (PSR sort gate)” value is given as “high polyreactivity”.

Regarding “QFQLVESGGGLVQAGGSLRLSCAASGFIFFNYAMGWYRQAPGKERELVASINWSTGSTYADSVKGRFTISRDNAKNTVYLQMNSLKPEDSAVYYCNTDHRRVAIPGGYWGQGTQVTVSS”, the “polyreactivity (PSR sort gate)” value is given as “low polyreactivity”. For “QFQLVESGGGLVQAGGSLRLSCAASGFTFAYYAMGWYRQAPGKERELVAAITYSGGSTYYADSVKGRFTISRDNAKNTVYLQMNSLKPEDTAVYDCAAYPSRRRRGDEDDYWGQGTQVTVSS”, the “polyreactivity (PSR sort gate)” value is listed as “high polyreactivity”.

In the case of “QFQLVESGGGLVQAGGSLRLSCAASGFTFEANAMGWYRKAPGKERELVASITRSDGSTHYADSVKGRFTISRDNAKNTVYLLMNRLKPEDTAVYYCAAVPESLTPKKGYGYWGKGTQVTVSS”, the “polyreactivity (PSR sort gate)” value is listed as “low polyreactivity”. Regarding “QFQLVESGGGLVQAGGSLRLSCAASGFTFRKYAMGWYRQAPGKERELVAAIRSTGRSNYADSVKGRFTISRDNAKNTVYFQMNSLKPVDTAVYYFNVDLTYYYYEVDYWGQGTQVTVSS”, the “polyreactivity (PSR sort gate)” value is on record as “high polyreactivity”. On to “QFQLVESGGGLVQAGGSLRLSCAASGFTFSHNTMGWYIQSPGKEREFVARISGRGVSTSYADSVKGRFTISRDNAKNTVYLQMNCLKPEDTAVYYCNRRVAYLSGYSYDYWGQGTQVTVSS”, for which the “polyreactivity (PSR sort gate)” value is listed as “high polyreactivity”. On to “QFQLVESGGGLVQAGGSLRLSCAASGFTFYLYAMGWYRQAPGKERELVAAIRGSGGSTYYADSVKGRFTISRDTAKNSVYLQMNSLKPEDTEVYYCAADYKVSASWYYAYTFYYWGQGTQVTVSS”, for which the “polyreactivity (PSR sort gate)” value is given as “low polyreactivity”.

Consider “QFQLVESGGGLVQAGGSLRLSCAASGGIFTDYTMGWYRQAPGKERELVAAITWTGGSTYYADSVKGRFTISRDNAKNTVYLQMNILKPEDTAVYYCAADDYWVNLDYWGQGTQVTVSS”, for which the “polyreactivity (PSR sort gate)” value was “low polyreactivity”.

In the case of “QFQLVESGGGLVQAGGSLRLSCAASGGTFDPYAMGLYRQAPGKERELVAAINYGGGSTYYADSVKGRFTISRDNAKNTVYLQMNSLKPEDTAVYYCAADGGRLTTSQLAQWEYDYWGQGTQVTVSS”, the “polyreactivity (PSR sort gate)” value is on record as “low polyreactivity”.
